In article PMC10796322, “Molecular switching in transcription through splicing and proline-isomerization regulates stress responses in plants” (Nature Communications, 2024):
Positions count from the first letter of the chain named. In names and notes the source's numbering stands. Several values for one entry are separate records, joined by “and”; a condition that tells them apart may be missing. Identical values can stand only once. No end group written: not given here.

T1: Med25-ACID_(532-680), activator interaction domain (ACID) of mediator complex subunit 25 (Arabidopsis thaliana, UniProt Q7XYY2 532-680)
T1 construct: 15N- or 13C,15N-labelled in the NMR titrations; unlabelled in ITC, CEST and stopped-flow; also called AtMed25-ACID; ACID domain; source: E. coli BL21 DE3, purified (glutathione Sepharose, TEV cleavage, cation exchange, SEC); not shown: GST, N-terminal, cleaved
T1 sequence (looked up): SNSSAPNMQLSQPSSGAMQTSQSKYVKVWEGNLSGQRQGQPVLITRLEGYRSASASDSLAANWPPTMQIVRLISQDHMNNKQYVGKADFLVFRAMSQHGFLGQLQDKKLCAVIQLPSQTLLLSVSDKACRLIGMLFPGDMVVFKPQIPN

T2: Med25-ACID R568A (Arabidopsis thaliana, UniProt Q7XYY2 532-680, R568A)
T2 sequence: T1 sequence (looked up) with R37A

T3: Med25-ACID_(532-680), activator interaction domain (ACID) of mediator complex subunit 25 (Arabidopsis thaliana, UniProt Q7XYY2 532-680)
T3 chain: T1 sequence (looked up)

B1: DREB2A_(195-335,Δ244-276) (domain or fragment, Arabidopsis thaliana, UniProt O82132 195-335, looked up)
chain: VKADKHWLSEFEHNYWSDILKEKEKQKEQGIVETCQQQQQDSLSVADYGLNQDRYPGNSVANGSYRPESQQSGFDPLQSLNYGIPPFQLEGKDGNGFFDDLSYLDLEN
notes: also called splice variant fragment; source: E. coli BL21 DE3, purified (glutathione Sepharose, TEV cleavage, SEC); not shown: GST, N-terminal, cleaved
B2: DREB2A_(151-335) (domain or fragment, Arabidopsis thaliana, UniProt O82132 151-335, looked up)
chain: VCTVETPGCVHVKTEDPDCESKPFSGGVEPMYCLENGAEEMKRGVKADKHWLSEFEHNYWSDILKEKEKQKEQGIVETCQQQQQDSLSVADYGWPNDVDQSHLDSSDMFDVDELLRDLNGDDVFAGLNQDRYPGNSVANGSYRPESQQSGFDPLQSLNYGIPPFQLEGKDGNGFFDDLSYLDLEN
notes: also called C-terminal intrinsically disordered region (IDR) of DREB2A; source: E. coli BL21 DE3, purified (glutathione Sepharose, TEV cleavage, SEC); not shown: GST, N-terminal, cleaved
B3: DREB2A_(195-276) (domain or fragment, Arabidopsis thaliana, UniProt O82132 195-276, looked up)
chain: VKADKHWLSEFEHNYWSDILKEKEKQKEQGIVETCQQQQQDSLSVADYGWPNDVDQSHLDSSDMFDVDELLRDLNGDDVFAG
notes: source: E. coli BL21 DE3, purified (glutathione Sepharose, TEV cleavage, SEC); not shown: GST, N-terminal, cleaved
B4: DREB2A_(195-276) D241A (domain or fragment, Arabidopsis thaliana, UniProt O82132 195-276, looked up)
chain: B3 chain with D47A
notes: as for B3
B5: DREB2A_(195-276) F259A (domain or fragment, Arabidopsis thaliana, UniProt O82132 195-276, looked up)
chain: B3 chain with F65A
notes: as for B3
B6: DREB2A_(195-276) L237A (domain or fragment, Arabidopsis thaliana, UniProt O82132 195-276, looked up)
chain: B3 chain with L43A
notes: as for B3
B7: DREB2A_(195-276) W244A (domain or fragment, Arabidopsis thaliana, UniProt O82132 195-276, looked up)
chain: B3 chain with W50A
notes: as for B3
B8: DREB2A_(195-276) E263P (domain or fragment, Arabidopsis thaliana, UniProt O82132 195-276, looked up)
chain: B3 chain with E69P
notes: also called helix-disrupting DREB2A E263P variant; source: E. coli BL21 DE3, purified (glutathione Sepharose, TEV cleavage, SEC); not shown: GST, N-terminal, cleaved
B9: DREB2A_(195-276) F274A (domain or fragment, Arabidopsis thaliana, UniProt O82132 195-276, looked up)
chain: B3 chain with F80A
notes: as for B3
B10: DREB2A_(195-276) V239A (domain or fragment, Arabidopsis thaliana, UniProt O82132 195-276, looked up)
chain: B3 chain with V45A
notes: as for B3
B11: DREB2A_(234-276,P245A) (domain or fragment, Arabidopsis thaliana, UniProt O82132 234-276, looked up)
chain: QDSLSVADYGWANDVDQSHLDSSDMFDVDELLRDLNGDDVFAG
notes: Isotope-labelled in the CEST experiments; also called ABS-RIM_(P245A); DREB2A_(P245A); source: E. coli BL21 DE3, purified (glutathione Sepharose, TEV cleavage, SEC); not shown: GST, N-terminal, cleaved
B12: FITC-DREB2A_(234-276) (domain or fragment, Arabidopsis thaliana, UniProt O82132 234-276, looked up)
chain: B11 chain with A12P
modifications: also: single FITC label, position not given here
notes: also called FITC-labeled ABS-RIM; single-labeled FITC-DREB2A; source: E. coli BL21 DE3, purified; labeled with a FITC labeling kit (Pierce) and purified by reversed phase chromatography; not shown: GST, N-terminal, cleaved
B13: DREB2A_(234-272) (domain or fragment, Arabidopsis thaliana, UniProt O82132 234-272, looked up)
chain: QDSLSVADYGWPNDVDQSHLDSSDMFDVDELLRDLNGDD
notes: DREB2A, Arabidopsis thaliana, AT5G05410, residues 234-272; source: E. coli BL21 DE3, purified (glutathione Sepharose, TEV cleavage, SEC); not shown: GST, N-terminal, cleaved
B14: DREB2A_(234-256) (ABS) (domain or fragment, Arabidopsis thaliana, UniProt O82132 234-256, looked up)
chain: QDSLSVADYGWPNDVDQSHLDSS
notes: also called monovalent ABS fragment; source: E. coli BL21 DE3, purified (glutathione Sepharose, TEV cleavage, SEC); not shown: GST, N-terminal, cleaved
B15: DREB2A_(255-276) (RIM) (domain or fragment)
chain: SSDMFDVDELLRDLNGDDVFAG
B16: DREB2A_(234-335) (domain or fragment, Arabidopsis thaliana, UniProt O82132 234-335, looked up)
chain: QDSLSVADYGWPNDVDQSHLDSSDMFDVDELLRDLNGDDVFAGLNQDRYPGNSVANGSYRPESQQSGFDPLQSLNYGIPPFQLEGKDGNGFFDDLSYLDLEN
notes: DREB2A, Arabidopsis thaliana, AT5G05410, residues 234-335; source: E. coli BL21 DE3, purified (glutathione Sepharose, TEV cleavage, SEC); not shown: GST, N-terminal, cleaved

Tests used:
Med25-ACID = biological target: T4, Med25-ACID (Arabidopsis thaliana, UniProt Q7XYY2); settings: SD
T4 construct: Med25-ACID532-680 (AT1G25540), expressed in E. coli with N-terminal GST tag removed by TEV protease
Method: All protein fragments were produced with an N-terminal Glutathione-S-transferase (GST) tag which was removed using Tobacco Etch Virus (TEV) protease and expressed from E.coli BL21 DE3 cells. DREB2A (AT5G05410) variants were expressed at 37 °C for three hours. The DREB2A splice variant (AT5G05410.2) was based on GenBank ID CD530293[21]. Due to stability and aggregation considerations, Med25-ACID (AT1G25540) was expressed with additional N-terminal residues. Expression of Med25-ACID532-680 was induced at high OD (0.8-1.0) and cultured overnight at 18 °C. Cells were resuspended in 20 mM Tris-HCl pH 8.0, 100 mM NaCl lysis buffer and sonicated. The lysate was incubated with glutathione Sepharose for one hour and washed using the lysis buffer. Aliquots of 5 mL resin were resuspended in 20 mL of lysis buffer with 5 mM dithiothreitol (DTT) and 1 mM EDTA and the protein was cleaved overnight at 4 °C using TEV protease. For DREB2A, cleaved protein was freeze-dried and buffer-changed to experimental buffer using size exclusion chromatography. Med25-ACID was further purified using cation exchange (Source 15 S) at pH 8.5 and the buffer was changed using size exclusion chromatography (Superdex S75 10/300 GL). Isotope-labeled proteins were produced by growing the initial culture in lysogenic broth and transferring to half volume M9 minimal media 30 min before induction.
ITC was performed on either a MicroCal ITC200 or a Malvern Pananalytical PEAQ-ITC. All ITC experiments were performed using a 50 mM HEPES pH 7.4, 100 mM NaCl and 0.5 mM tris(2-carboxyethyl)phosphine (TCEP) buffer. All experiments were performed using a ~ 1:10 cell to syringe protein concentration ratio. For high-affinity DREB2A fragments, the cell concentration was around 15 µM, while lower-affinity interaction experiments used higher concentrations. Samples were degassed by centrifuging at 20,000 x g for 20 minutes at experimental temperature. For three DREB2A fragments, experiments were performed over a range of temperatures to determine the ΔCp. Reported thermodynamic parameters are given at 25 °C. Data were analyzed using Origin and inhouse scripts using the one-set-of-sites model as documented by MicroCal and Origin. Dilution heats were fitted using an offset parameter. Most experiments were performed using a 0.5 µl initial injection, which was discarded in the analysis, followed by 18 injections of 2.0 µl.

[1] = biological target: RCD1 RST (Arabidopsis thaliana) (UniProt Q8RY59); settings: cited from earlier work
[2] = biological target: Med25-ACID_(532-680), activator interaction domain (ACID) of mediator complex subunit 25 (Arabidopsis thaliana) (UniProt Q7XYY2); test: NMR titration; 15N-HSQC; 100-150 µM 15N-labeled Med25-ACID(532-680) at constant concentration with increasing DREB2A ligand; 20 mM Na2HPO4/NaH2PO4 pH 6.5, 100 mM NaCl; chemical shift perturbations
[3] = biological target: T1, Med25-ACID_(532-680), activator …; test: ITC; 25 °C; 50 mM HEPES pH 7.4, 100 mM NaCl, 0.5 mM TCEP; ~1:10 cell to syringe concentration ratio, cell around 15 µM for high-affinity fragments; one-set-of-sites model; which protein was in the cell is not stated; settings: both partners purified
Med25-ACID R568A = biological target: T2, Med25-ACID R568A; test: ITC
[4] = biological target: T1, Med25-ACID_(532-680), activator …; test: stopped-flow fluorescence; FITC-DREB2A (50 nM 234-276 or 250 nM 234-256) mixed with increasing Med25-ACID(532-680), pseudo-first-order; dissociation by competitive displacement with unlabeled DREB2A; 50 mM HEPES pH 7.4, 100 mM NaCl, 1 mM DTT; Fig. 7 legend gives kinetic rate constants at 10 °C; settings: both partners purified
[5] = biological target: T3, Med25-ACID_(532-680), activator …; test: NMR; first site (Kd,1), competitive two binding sites model
[6] = biological target: T3, Med25-ACID_(532-680), activator …; test: NMR; second site (Kd,2), competitive two binding sites model

Row | Molecule | Kd (Med25-ACID) [µM] | Kd [3] [µM] | dH [3] [kJ/mol] | stoichiometry N [3] | also measured
1 | DREB2A195-276 V239A | 2 ± 0.2 |  |  |  | 
2 | DREB2A (from UniProt O82132) |  |  |  |  | Kd [1]: 0.012 µM
3 | DREB2A195-276 E263P | 0.58 ± 0.04 |  |  |  | 
4 | DREB2A195-335,Δ244-276 (splice variant fragment) [195–335 ∆244–276] | 5.4 ± 0.6 |  |  |  | 
5 | DREB2A151-335 [151–335] | 0.54 ± 0.04 |  |  |  | 
6 | DREB2A195-276 D241A | 2 ± 0.7 |  |  |  | 
7 | DREB2A195-276 F259A | 0.55 ± 0.05 |  |  |  | 
8 | DREB2A234-335 [234–335] | 0.44 ± 0.06 |  |  |  | 
9 | DREB2A_(255-276) (RIM) (from UniProt O82132 255-276) (domain or fragment) |  |  |  |  | KD (binding surface site) [2]: 3000 to 6000 µM; KD (binding surface site, by NMR) [2]: 5000 µM; KD (groove site) [2]: 200 to 400 µM
10 | DREB2A195-276 W244A | 1.9 ± 0.2 |  |  |  | 
11 | DREB2A195-276 L237A | 2.4 ± 0.3 |  |  |  | 
12 | DREB2A195-276 F274A | 0.66 ± 0.09 |  |  |  | 
13 | B1 |  | 5.4 | -59 | 1.02 | 
14 | B2 |  |  | -52.3 | 1.1 | 
15 | B3 |  | 0.45 | -51.2 | 1.09 | Kd (Med25-ACID R568A): 3.2 µM and 2.9 µM
16 | B4 |  | 2 ± 0.7 | -37 ± 7 | 1.07 ± 0.06 | 
17 | B5 |  | 0.55 ± 0.05 | -58.8 ± 0.9 | 1.2 ± 0.1 | 
18 | B6 |  | 2.4 ± 0.3 | -22.9 ± 0.7 | 1.03 ± 0.06 | 
19 | B7 |  | 1.9 ± 0.2 | -47 ± 1 | 1 ± 0.1 | 
20 | B8 |  | 0.58 ± 0.04 | -61.2 ± 0.8 | 1 ± 0.06 | 
21 | B9 |  | 0.66 ± 0.09 | -62 ± 2 | 0.86 ± 0.02 | 
22 | B10 |  | 2 ± 0.2 | -42 ± 1 | 0.95 ± 0.01 | 
23 | B11 |  | 0.78 ± 0.06 | -43.4 ± 0.8 | 1.26 ± 0.01 | 
24 | B12 |  |  |  |  | binding result [4]: binds
25 | B13 |  | 1.8 | -43 | 0.97 | 
26 | B14 |  | 6 | -54 | 0.86 | 
27 | B15 |  |  |  |  | Kd [5]: 280 µM; Kd [6]: 4700 µM
28 | B16 |  | 0.44 | -58 | 1 | 
